Test results taken from PMC4002121, “Trimethylation of Histone H3 Lysine 36 by Human Methyltransferase PRDM9 Protein” (The Journal of Biological Chemistry, 2014).

Key:
Experiment in all cases: purified protein, by the assay type
Details in all cases: other: apparent Km of the peptide, AdoMet saturating 448 μM, 1 nM PRDM9, 10 mM Tris-HCl pH 8.5, 0.01% Triton X-100, 10 mM DTT, 20 min, 23 °C, mean ± S.D., n = 3, NA = not active
[1] = substrate: CNCCCC[C@H](NC(=O)[C@@H](NC(=O)[C@H](CCCNC(=N)N)NC(=O)[C@H](C)N)[C@@H](C)O)C(=O)N[C@@H](CCC(N)=O)C(=O)N[C@H](C(=O)N[C@@H](C)C(=O)N[C@@H](CCCNC(=N)N)C(=O)N[C@@H](CCCCN)C(=O)N[C@@H](CO)C(=O)N[C@H](C(=O)NCC(=O)NCC(=O)N[C@@H](CCCCN)C(=O)N[C@@H](C)C(=O)N1CCC[C@H]1C(=O)N[C@@H](CCCNC(=N)N)C(=O)N[C@@H](CCCCN)C(=O)N[C@@H](CCC(N)=O)C(=O)N[C@@H](CC(C)C)C(=O)N[C@@H](C)C(=O)N[C@H](C(=O)N[C@@H](CCCCN)C(=O)N[C@@H](C)C(=O)N[C@@H](C)C(=O)O)[C@@H](C)O)[C@@H](C)O)[C@@H](C)O
Method: (§1) To avoid the binding capacity limitation of scintillation proximity assay plates, a membrane-based assay was used for all kinetic studies. […] Apparent Km values were determined for AdoMet in reactions with each peptide by varying the AdoMet concentration. The highest concentration of AdoMet was 448 μM (5 μM [^3H]AdoMet plus 443 μM cold AdoMet). Dilutions of AdoMet were then made with assay buffer. The peptide concentration was kept at 5 μM. The assay buffer was 10 mM Tris-HCl, pH 8.5, 0.01% Triton X-100, and 10 mM DTT in a final volume of 20 μl. The reactions were started by addition of 1 nM PRDM9. The reaction mixtures were incubated for 20 min at 23 °C and quenched by adding 20 μl of 7.5 M guanidinium hydrochloride. 10 μl of quenched reaction mixture was spotted onto streptavidin-coated membrane squares (SAM2® Biotin capture membrane, Promega). The membrane was washed three times in 2 M NaCl for 2 min each time, then in water three times for 30 s each. The membrane was dried at 50 °C for 1 h and then each spotted square was cut from the membrane and placed in a scintillation vial. The amount of methylated peptide was quantified by tracing the radioactivity (cpm) as counted by a TriCarb liquid scintillation counter (PerkinElmer Life Sciences).

[2] = substrate: CC(C)[C@H](NC(=O)CNC(=O)CNC(=O)[C@@H](NC(=O)[C@H](C)NC(=O)[C@@H]1CCCN1C(=O)[C@H](C)NC(=O)[C@H](CO)NC(=O)[C@H](CCCCN)NC(=O)[C@H](CCCNC(=N)N)NC(=O)[C@H](C)NC(=O)[C@H](C)NC(=O)[C@H](CCCCN)NC(=O)[C@@H](NC(=O)[C@H](C)N)[C@@H](C)O)[C@@H](C)O)C(=O)N[C@@H](CCCCN(C)C)C(=O)N[C@@H](CCCCN)C(=O)N1CCC[C@H]1C(=O)N[C@@H](Cc1c[nH]cn1)C(=O)N[C@@H](CCCNC(=N)N)C(=O)N[C@@H](Cc1ccc(O)cc1)C(=O)N[C@@H](CCCNC(=N)N)C(=O)N1CCC[C@H]1C(=O)NCC(=O)O
Method: as §1

[3] = substrate: CC(C)C[C@H](NC(=O)[C@H](CCC(N)=O)NC(=O)[C@H](CCCCN)NC(=O)[C@H](CCCNC(=N)N)NC(=O)[C@@H]1CCCN1C(=O)[C@H](C)NC(=O)[C@H](CCCCN)NC(=O)CNC(=O)CNC(=O)[C@@H](NC(=O)[C@H](CO)NC(=O)[C@H](CCCCN)NC(=O)[C@H](CCCNC(=N)N)NC(=O)[C@H](C)NC(=O)[C@@H](NC(=O)[C@H](CCC(N)=O)NC(=O)[C@H](CCCCN(C)C)NC(=O)[C@@H](NC(=O)[C@H](CCCNC(=N)N)NC(=O)[C@H](C)N)[C@@H](C)O)[C@@H](C)O)[C@@H](C)O)C(=O)N[C@@H](C)C(=O)N[C@H](C(=O)N[C@@H](CCCCN)C(=O)N[C@@H](C)C(=O)N[C@@H](C)C(=O)O)[C@@H](C)O
Method: as §1

[4] = substrate: CNCCCC[C@H](NC(=O)[C@@H](NC(=O)CNC(=O)CNC(=O)[C@@H](NC(=O)[C@H](C)NC(=O)[C@@H]1CCCN1C(=O)[C@H](C)NC(=O)[C@H](CO)NC(=O)[C@H](CCCCN)NC(=O)[C@H](CCCNC(=N)N)NC(=O)[C@H](C)NC(=O)[C@H](C)NC(=O)[C@H](CCCCN)NC(=O)[C@@H](NC(=O)[C@H](C)N)[C@@H](C)O)[C@@H](C)O)C(C)C)C(=O)N[C@@H](CCCCN)C(=O)N1CCC[C@H]1C(=O)N[C@@H](Cc1c[nH]cn1)C(=O)N[C@@H](CCCNC(=N)N)C(=O)N[C@@H](Cc1ccc(O)cc1)C(=O)N[C@@H](CCCNC(=N)N)C(=O)N1CCC[C@H]1C(=O)NCC(=O)O
Method: as §1

[5] = substrate: CC(C)[C@H](NC(=O)CNC(=O)CNC(=O)[C@@H](NC(=O)[C@H](C)NC(=O)[C@@H]1CCCN1C(=O)[C@H](C)NC(=O)[C@H](CO)NC(=O)[C@H](CCCCN)NC(=O)[C@H](CCCNC(=N)N)NC(=O)[C@H](C)NC(=O)[C@H](C)NC(=O)[C@H](CCCCN)NC(=O)[C@@H](NC(=O)[C@H](C)N)[C@@H](C)O)[C@@H](C)O)C(=O)N[C@@H](CCCCN)C(=O)N[C@@H](CCCCN)C(=O)N1CCC[C@H]1C(=O)N[C@@H](Cc1c[nH]cn1)C(=O)N[C@@H](CCCNC(=N)N)C(=O)N[C@@H](Cc1ccc(O)cc1)C(=O)N[C@@H](CCCNC(=N)N)C(=O)N1CCC[C@H]1C(=O)NCC(=O)O
Method: as §1

B1: PRDM9 (Homo sapiens) (protein)
chain: SEPQDDDYLYCEMCQNFFIDSCAAHGPPTFVKDSAVDKGHPNRSALSLPPGLRIGPSGIPQAGLGVWNEASDLPLGLHFGPYEGRITEDEEAANNGYSWLITKGRNCYEYVDGKDKSWANWMRYVNCARDDEEQNLVAFQYHRQIFYRTCRVIRPGCELLVWYGDEYGQELGIKWGSKWKKELMAGREPKP
Protein B1 has a Km [1] of 1 ± 0.2 µM, a Km [2] of 2.5 ± 0.3 µM and a Km [3] of 3 ± 1 µM. It also gave a Km [4] of 2.4 ± 0.4 µM and a Km [5] of 1.5 ± 0.2 µM.
